In data set [1] the target is T1, TaPAPhy_b2 (Triticum aestivum, UniProt F6MIW5).
T1 sequence (F6MIW5 21-530): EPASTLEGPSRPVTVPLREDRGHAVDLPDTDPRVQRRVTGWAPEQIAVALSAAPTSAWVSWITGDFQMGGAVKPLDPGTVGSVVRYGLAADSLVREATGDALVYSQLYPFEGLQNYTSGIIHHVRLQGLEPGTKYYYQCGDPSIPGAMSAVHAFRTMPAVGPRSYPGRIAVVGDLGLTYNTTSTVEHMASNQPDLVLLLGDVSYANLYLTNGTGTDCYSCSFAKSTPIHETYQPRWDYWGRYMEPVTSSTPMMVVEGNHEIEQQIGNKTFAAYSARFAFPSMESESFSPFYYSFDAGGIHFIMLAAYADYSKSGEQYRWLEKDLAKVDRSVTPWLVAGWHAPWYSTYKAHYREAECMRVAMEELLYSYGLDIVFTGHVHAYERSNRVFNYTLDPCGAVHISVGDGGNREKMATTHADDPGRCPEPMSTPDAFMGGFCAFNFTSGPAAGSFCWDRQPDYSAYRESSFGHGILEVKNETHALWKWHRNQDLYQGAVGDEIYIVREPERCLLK
The data set can be described thus: X-ray crystal structure of soaked crystal. On the set-up: gene TRAES_3BF026700100CFD_c1; signal peptide (20 aa) and C-terminal 7-aa ER-retention signal removed; alpha-factor secretion signal, C-terminal 6xHis; Pichia pastoris KM71H (OCH1::G418R); 510 residues, Fe-Fe centre; glycosylated for assays, Endo F1 deglycosylated for crystals. It is filed as binding. The following applies: 5 mM InsS6 soak, pH 5.5; deglycosylated enzyme; site adjacent to active centre (standby mode), phosphate at catalytic centre.

The target in data set [2] is T1, TaPAPhy_b2. The arrangement: gene TRAES_3BF026700100CFD_c1. To be noted: deglycosylated enzyme; product-bound state 1.42 A; bound to both irons (second structure, substrate-bound state, 1.54 A: 6GIZ).
Substrate in data set [3]: O=P(O)(O)O[C@H]1[C@H](OP(=O)(O)O)[C@@H](OP(=O)(O)O)[C@H](OP(=O)(O)O)[C@@H](OP(=O)(O)O)[C@H]1OP(=O)(O)O
Briefly: purified protein. To be noted: 0.2 M acetate pH 5.5, glycosylated enzyme.

Where a chain is given by its changes, count along the chain named. Names and notes keep the numbering of the source.

As to `O=S(=O)(O)O[C@H]1[C@H](OS(=O)(=O)O)[C@@H](OS(=O)(=O)O)[C@H](OS(=O)(=O)O)[C@@H](OS(=O)(=O)O)[C@H]1OS(=O)(=O)O` [InsS6, myo-inositol hexakissulfate], in data set [1], the “X-ray crystal structure of soaked crystal” value was “it binds at a site immediately adjacent to the active center”.

For `O=P(O)(O)O` [phosphate], the X-ray crystal structure entry in data set [2] is on record as “A phosphate ion is bound to the two metal ions”.

B1: TaPAPhy_b2 (Triticum aestivum) (protein)
chain: T1 sequence (F6MIW5 21-530)
As a reminder, the Km is the substrate concentration at which the rate is half of its maximum. The kcat is the maximal rate divided by the concentration of active sites. As to B1, in data set [3], the Km amounted to 76.4 ± 7.7 µM and the kcat came to 23.8 ± 0.9 s⁻¹.

B2: TaPAPhy_b2 (Triticum aestivum; K430A) (protein)
chain: T1 sequence (F6MIW5 21-530) with K410A
With B2, in data set [3], the Km was 307.6 ± 56.7 µM and the kcat was 3.1 ± 0.3 s⁻¹.

B3: TaPAPhy_b2 (Triticum aestivum; K368A) (protein)
chain: T1 sequence (F6MIW5 21-530) with K348A
For B3, in data set [3], the Km was determined as 214.6 ± 46.6 µM and the kcat worked out at 28.4 ± 3.0 s⁻¹.
